{"source": "patent US20160193299A1", "about": "“MODIFIED NUCLEOSIDE, NUCLEOTIDE, AND NUCLEIC ACID COMPOSITIONS” (Moderna Therapeutics, Inc., priority 2011, published 2016)", "molecules": {"B1": {"name": "G-CSF: human G-CSF mRNA SEQ ID NO: 6, polyA ~160 nt, Cap1, fully modified with 5-methylcytosine and pseudouridine (nucleic acid, listed as Homo sapiens)", "chain": "GGGAAAUAAGAGAGAAAAGAAGAGUAAGAAGAAAUAUAAGAGCCACCAUGGCCGGUCCCGCGACCCAAAGCCCCAUGAAACUUAUGGCCCUGCAGUUGCUGCUUUGGCACUCGGCCCUCUGGACAGUCCAAGAAGCGACUCCUCUCGGACCUGCCUCAUCGUUGCCGCAGUCAUUCCUUUUGAAGUGUCUGGAGCAGGUGCGAAAGAUUCAGGGCGAUGGAGCCGCACUCCAAGAGAAGCUCUGCGCGACAUACAAACUUUGCCAUCCCGAGGAGCUCGUACUGCUCGGGCACAGCUUGGGGAUUCCCUGGGCUCCUCUCUCGUCCUGUCCGUCGCAGGCUUUGCAGUUGGCAGGGUGCCUUUCCCAGCUCCACUCCGGUUUGUUCUUGUAUCAGGGACUGCUGCAAGCCCUUGAGGGAAUCUCGCCAGAAUUGGGCCCGACGCUGGACACGUUGCAGCUCGACGUGGCGGAUUUCGCAACAACCAUCUGGCAGCAGAUGGAGGAACUGGGGAUGGCACCCGCGCUGCAGCCCACGCAGGGGGCAAUGCCGGCCUUUGCGUCCGCGUUUCAGCGCAGGGCGGGUGGAGUCCUCGUAGCGAGCCACCUUCAAUCAUUUUUGGAAGUCUCGUACCGGGUGCUGAGACAUCUUGCGCAGCCGUGAAGCGCUGCCUUCUGCGGGGCUUGCCUUCUGGCCAUGCCCUUCUUCUCUCCCUUGCACCUGUACCUCUUGGUCUUUGAAUAAAGCCUGAGUAGGAAG", "modifications": "polyA ~160, Cap1, 5mC/pseudouridine modified"}}, "key": {"[1]": {"tested_on": "alanine transaminase (ALT)", "test": "Example 22 non-human primate study, serum chemistry alanine transaminase (ALT)", "format": "in vivo, cynomolgus monkey", "procedure": "(§1) LNP formulations, shown in Table 31 (above), were administered to non-human primates (NHP) (cynomolgus monkey) (n=2) as intravenous injection (IV). The NHP were administered a single modified mRNA IV dose of 0.5 mg/kg, 0.05 mg/kg or 0.005 mg/kg of G-CSF or EPO in a dose volume of 0.5 mL/kg. The NHPs were bled before dosing with the modified mRNA LNP formulations to determine protein expression in the serum and a baseline complete blood count. After administration with the G-CSF modified mRNA formulation the NHP were bled at 8, 24, 48 and 72 hours to determined protein expression. After administration with the EPO modified mRNA formulation the NHP were bled at 8, 24, 48, 72 hours and 7 days to determined protein expression."}, "G-CSF": {"tested_on": "G-CSF", "test": "Examples 21-22 non-human primate in vivo study, serum G-CSF ELISA", "parameters": "species or system cynomolgus monkey", "procedure": "Formulations, listed in Table 31, were characterized by particle size, zeta potential, and encapsulation.\nLNP formulations, shown in Table 31 (above), were administered to non-human primates (NHP) (cynomolgus monkey) (n=2) as a bolus intravenous injection (IV) over approximately 30 seconds using a hypodermic needle, which may be attached to a syringe/abbocath or butterfly if needed. The NHP were administered a single modified mRNA IV dose of 0.05 mg/kg of EPO or G-CSF or 0.005 mg/kg of EPO in a dose volume of 0.5 mL/kg. The NHPs were bled 5-6 days before dosing with the modified mRNA LNP formulations to determine protein expression in the serum and a baseline complete blood count. After administration with the modified mRNA formulation the NHP were bled at 8, 24, 48 and 72 hours to determined protein expression. At 24 and 72 hours after administration the complete blood count of the NHP was also determined. Protein expression of G-CSF and EPO was determined by ELISA. Urine from the NHPs was collected over the course of the entire experiment and analyzed to evaluate clinical safety. Samples were collected from the NHPs after they were administered with G-CSF or EPO modified mRNA formulations to determine protein expression using ELISA. Clinical chemistry, hematology, urinalysis and cytokines of the non-human primates were also analyzed.\nas §1\nSamples collected from the NHPs after they were administered with G-CSF or EPO modified mRNA formulations were analyzed by ELISA to determine protein expression. Neutrophil and reticulocyte count was also determined pre-dose, 24 hours, 3 days, 7 days, 14 days and 18 days after administration of the modified G-CSF or EPO formulation."}}, "data": [{"molecule": "B1", "values": [{"measurement": "ALT", "setting": "[1]; Female NHP, 0.005 mg/kg, 2 days", "value": 32, "unit": "U/L"}, {"measurement": "ALT", "setting": "[1]; Female NHP, 0.005 mg/kg, 4 days", "value": 58, "unit": "U/L"}, {"measurement": "ALT", "setting": "[1]; Female NHP, 0.005 mg/kg, 7 days", "value": 55, "unit": "U/L"}, {"measurement": "ALT", "setting": "[1]; Female NHP, 0.005 mg/kg, 14 days", "value": 46, "unit": "U/L"}, {"measurement": "ALT", "setting": "[1]; Female NHP, 0.005 mg/kg, Pre-dose", "value": 51, "unit": "U/L"}, {"measurement": "ALT", "setting": "[1]; Female NHP, 0.05 mg/kg, 2 days", "value": 39, "unit": "U/L"}, {"measurement": "ALT", "setting": "[1]; Female NHP, 0.05 mg/kg, 4 days", "value": 56, "unit": "U/L"}, {"measurement": "ALT", "setting": "[1]; Female NHP, 0.05 mg/kg, 7 days", "value": 73, "unit": "U/L"}, {"measurement": "ALT", "setting": "[1]; Female NHP, 0.05 mg/kg, 14 days", "value": 31, "unit": "U/L"}, {"measurement": "ALT", "setting": "[1]; Female NHP, 0.05 mg/kg, Pre-dose", "value": 53, "unit": "U/L"}, {"measurement": "ALT", "setting": "[1]; Female NHP, 0.5 mg/kg, 2 days", "value": 209, "unit": "U/L"}, {"measurement": "ALT", "setting": "[1]; Female NHP, 0.5 mg/kg, 4 days", "value": 98, "unit": "U/L"}, {"measurement": "ALT", "setting": "[1]; Female NHP, 0.5 mg/kg, 7 days", "value": 149, "unit": "U/L"}, {"measurement": "ALT", "setting": "[1]; Female NHP, 0.5 mg/kg, 14 days", "value": 145, "unit": "U/L"}, {"measurement": "ALT", "setting": "[1]; Female NHP, 0.5 mg/kg, Pre-dose", "value": 216, "unit": "U/L"}, {"measurement": "ALT", "setting": "[1]; Male NHP, 0.005 mg/kg, 2 days", "value": 39, "unit": "U/L"}, {"measurement": "ALT", "setting": "[1]; Male NHP, 0.005 mg/kg, 4 days", "value": 48, "unit": "U/L"}, {"measurement": "ALT", "setting": "[1]; Male NHP, 0.005 mg/kg, 7 days", "value": 29, "unit": "U/L"}, {"measurement": "ALT", "setting": "[1]; Male NHP, 0.005 mg/kg, 14 days", "value": 44, "unit": "U/L"}, {"measurement": "ALT", "setting": "[1]; Male NHP, 0.005 mg/kg, Pre-dose", "value": 43, "unit": "U/L"}, {"measurement": "ALT", "setting": "[1]; Male NHP, 0.05 mg/kg, 2 days", "value": 82, "unit": "U/L"}, {"measurement": "ALT", "setting": "[1]; Male NHP, 0.05 mg/kg, 4 days", "value": 88, "unit": "U/L"}, {"measurement": "ALT", "setting": "[1]; Male NHP, 0.05 mg/kg, 7 days", "value": 73, "unit": "U/L"}, {"measurement": "ALT", "setting": "[1]; Male NHP, 0.05 mg/kg, 14 days", "value": 50, "unit": "U/L"}, {"measurement": "ALT", "setting": "[1]; Male NHP, 0.05 mg/kg, Pre-dose", "value": 58, "unit": "U/L"}, {"measurement": "ALT", "setting": "[1]; Male NHP, 0.5 mg/kg, 2 days", "value": 63, "unit": "U/L"}, {"measurement": "ALT", "setting": "[1]; Male NHP, 0.5 mg/kg, 4 days", "value": 70, "unit": "U/L"}, {"measurement": "ALT", "setting": "[1]; Male NHP, 0.5 mg/kg, 7 days", "value": 41, "unit": "U/L"}, {"measurement": "ALT", "setting": "[1]; Male NHP, 0.5 mg/kg, 14 days", "value": 43, "unit": "U/L"}, {"measurement": "ALT", "setting": "[1]; Male NHP, 0.5 mg/kg, Pre-dose", "value": 29, "unit": "U/L"}, {"measurement": "Female NHP Serum G-CSF Concentration", "setting": "G-CSF; IV 0.005 mg/kg, 8 hours", "value": 559, "unit": "pg/mL"}, {"measurement": "Male NHP Serum G-CSF Concentration", "setting": "G-CSF; IV 0.005 mg/kg, 8 hours", "value": 700, "unit": "pg/mL"}, {"measurement": "Female NHP Serum G-CSF Concentration", "setting": "G-CSF; IV 0.005 mg/kg, 24 hours", "value": 155, "unit": "pg/mL"}, {"measurement": "Male NHP Serum G-CSF Concentration", "setting": "G-CSF; IV 0.005 mg/kg, 24 hours", "value": "<39", "unit": "pg/mL"}, {"measurement": "Female NHP Serum G-CSF Concentration", "setting": "G-CSF; IV 0.005 mg/kg, 48 hours", "value": "<39", "unit": "pg/mL"}, {"measurement": "Male NHP Serum G-CSF Concentration", "setting": "G-CSF; IV 0.005 mg/kg, 48 hours", "value": "<39", "unit": "pg/mL"}, {"measurement": "Female NHP Serum G-CSF Concentration", "setting": "G-CSF; IV 0.005 mg/kg, 72 hours", "value": "<39", "unit": "pg/mL"}, {"measurement": "Male NHP Serum G-CSF Concentration", "setting": "G-CSF; IV 0.005 mg/kg, 72 hours", "value": "<39", "unit": "pg/mL"}, {"measurement": "Female NHP Serum G-CSF Concentration", "setting": "G-CSF; IV 0.005 mg/kg, Pre-bleed", "value": "<39", "unit": "pg/mL"}, {"measurement": "Male NHP Serum G-CSF Concentration", "setting": "G-CSF; IV 0.005 mg/kg, Pre-bleed", "value": "<39", "unit": "pg/mL"}, {"measurement": "Female NHP Serum G-CSF Concentration", "setting": "G-CSF; IV 0.05 mg/kg, 24 hours", "value": 722, "unit": "pg/mL"}, {"measurement": "Male NHP Serum G-CSF Concentration", "setting": "G-CSF; IV 0.05 mg/kg, 24 hours", "value": 307, "unit": "pg/mL"}, {"measurement": "Female NHP Serum G-CSF Concentration", "setting": "G-CSF; IV 0.5 mg/kg, 8 hours", "value": "43,525 pg/ml"}, {"measurement": "Male NHP Serum G-CSF Concentration", "setting": "G-CSF; IV 0.5 mg/kg, 8 hours", "value": "43,594 pg/ml"}]}]}
